Data from patent US20210380703A1.
Changes are numbered by the printed parent chain.

B1: 372_A09 (antibody, V domains shown)
VH: EVQLLESGGGLVQPGGSLRLSCAASGFTFDSYGMNWVRQAPGKGLEWVSGINYNGGYTSYADSVKGRFTISRDNSKNTLYLQMNSLRAEDTAVYYCARAANWHDTALDYWGQGTLVTVSS
VL: DIQMTQSPSSLSASVGDRVTITCRASQSILSYLNWYQQKPGKAPKLVIYAATSRASGVPSRFSGSGSGTDFTLTISSLQPEDFATYYCQQSYNSPLTFGGGTKVEIK
B2: 365_F10 (antibody, V domains shown)
VH: B1 VH with S31D, N35H, N101T, A106H
VL: B1 VL with L30V, S31T, L33V, V47L, N93E, S94L
B3: 373_E11 (antibody, V domains shown)
VH: B1 VH with N35H, S49A, G50S
VL: B1 VL with L30V, N93D
B4: 376_G02 (antibody, V domains shown)
VH: B1 VH with D30S, S31D
VL: B1 VL with L30S, S31R, R54L, N93D, S94N
B5: 375_F12 (antibody, V domains shown)
VH: B1 VH with N35H, S49A, G50S
VL: B1 VL with S31T, Y92D, N93E, S94L
B6: 366_B09 (antibody, V domains shown)
VH: B1 VH with D30S, S31D, N35H, G50S, G55S, T58K, N101T, A106H
VL: B1 VL with S31T, A55H, N93D
B7: 375_H01 (antibody, V domains shown)
VH: B1 VH with D30S, S31D, G33S, S49A, G55S, A106H
VL: B1 VL with S31T, V47L, A55H, N93S, S94N
B8: 373_H12 (antibody, V domains shown)
VH: B1 VH with D30S, S31D, G33S, G55S, T58K, S59G, A99S, N101T, A106H
VL: B1 VL with S31T, V47L
B9: 369_F04 (antibody, V domains shown)
VH: B1 VH with D30S, A99S, N101T, A106H
VL: B1 VL with L30I, L33V, V47L, A55H, N93D, S94N
B10: 375_A04 (antibody, V domains shown)
VH: B1 VH with S49A, T58K
VL: B1 VL with S31T, A50Y, A51V, T52N, S53N, R54L, A55P
B11: 365_D03 (antibody, V domains shown)
VH: B1 VH with S31D, G33S, N35H, S49A, G50S, T58K, N101T, A106H
VL: B1 VL with L30V, N93D
B12: 365_B12 (antibody, V domains shown)
VH: B1 VH with D30S, S31D, N35H, N101T, A106H
VL: B1 VL with L30S, S31T, L33V, V47L, A51V, R54L, A55H, N93D, S94N
B13: 375_A11 (antibody, V domains shown)
VH: B1 VH with D30S, S31D, N35H, G50S, G55S, T58K
VL: B1 VL with L30V, V47L, A50Y, A51V, S53N, R54L, N93D, S94N
B14: 376_G01 (antibody, V domains shown)
VH: B1 VH with S31D, G33S, G55S, T58K, A99S, N101T, A106H
VL: B1 VL with L33V, A51V, N93E, S94L
B15: 367_C06 (antibody, V domains shown)
VH: B1 VH with G33S, N35H, S49A, G50S, T58K, N101T, A106H
VL: B1 VL with S31T, R54L, A55H, N93D, S94T
B16: 365_G06 (antibody, V domains shown)
VH: B1 VH with N35H, S49A, N101T, A106H
VL: B1 VL with V47L, R54L, Y92D, N93S, S94T
B17: 365_D04 (antibody, V domains shown)
VH: B1 VH with D30S, S31D, N35H, S49A, T58K
VL: B1 VL with L30S, A51V, N93D, S94L
B18: 366_C05 (antibody, V domains shown)
VH: B1 VH with S31D, N35H, G50S, S59G, N101T, A106H
VL: B1 VL with L30I, N93D
B19: 369_D06 (antibody, V domains shown)
VH: B1 VH with G33S, S59G, A99S, N101T, A106H
VL: B1 VL with S31T, V47L, N93E, S94T
B20: 365_C06 (antibody, V domains shown)
VH: B1 VH with D30S, S31D, N35H
VL: B1 VL with L30S, S31T, L33V, V47L, A51V, R54L, N93D, S94N
B21: 365_D08 (antibody, V domains shown)
VH: B1 VH with G33S, N35H, G50S, N101T, A106H
VL: B1 VL with L30I, S31T, L33V, V47L, N93D, S94T
B22: 373_F02 (antibody, V domains shown)
VH: B1 VH with G33S, G55S, T58K, A99S, N101T, A106H
VL: B1 VL with S31T, V47L, N93D, S94T
B23: 366_E07 (antibody, V domains shown)
VH: B1 VH with N35H, S49A, N101T
VL: B1 VL with S31T, A55H, Y92D
B24: 372_B11 (antibody, V domains shown)
VH: B1 VH with D30S, G33S, N35H, S49A, G55S, A106H
VL: B1 VL with S31T, L33V, R54L, N93D, S94T
B25: 369_A01 (antibody, V domains shown)
VH: B1 VH with G33S, G55S, T58K, S59G, A99S, N101T, A106H
VL: B1 VL with S31T, L33V, R54L, N93E, S94L
B26: 367_A11 (antibody, V domains shown)
VH: B1 VH with D30S, N35H, A99S, N101T, A106H
VL: B1 VL with L33V, A51T, R54L
B27: 376_C07 (antibody, V domains shown)
VH: B1 VH with D30S, G33S, G55S, T58K, S59G, A99S, N101T, A106H
VL: B1 VL with L33V, V47L, A55H, N93D, S94L
B28: 367_C12 (antibody, V domains shown)
VH: B1 VH with D30S, N35H, N101T, A106H
VL: B1 VL with L33V, V47L, A51T, A55H, N93E
B29: 374_B02 (antibody, V domains shown)
VH: B1 VH with G33S, N35H, S49A, G55S, A106H
VL: B1 VL with L30I, V47L, N93D
B30: 372_E02 (antibody, V domains shown)
VH: B1 VH with D30S, S49A, G50S
VL: B1 VL with L30I, L33V, N93D, S94L
B31: 366_G02 (antibody, V domains shown)
VH: B1 VH with N35H, G50S, N101T, A106H
VL: B1 VL with S31T, V47L, A55H, Y92D, N93D, S94N
B32: 374_F03 (antibody, V domains shown)
VH: B1 VH with D30S, S49A, G50S, A106H
VL: B1 VL with L30I, L33V, N93D, S94T
B33: 366_H01 (antibody, V domains shown)
VH: B1 VH with S31D, G33S, N35H, S49A, G50N, N101T, A106H
VL: B1 VL with S31T, A51T, A55H, N93E

Target: human Fc (human)
Assay: ELISA, negative control

Row | optical density [OD] | Binder
1 | 0.31 | B1
2 | 0.386 | B2
3 | 0.243 | B3
4 | 0.285 | B4
5 | 0.175 | B5
6 | 0.283 | B6
7 | 0.216 | B7
8 | 0.162 | B8
9 | 0.369 | B9
10 | 0.177 | B10
11 | 0.346 | B11
12 | 0.307 | B12
13 | 0.176 | B13
14 | 0.227 | B14
15 | 0.29 | B15
16 | 0.32 | B16
17 | 0.316 | B17

Row | optical density [OD] | Binder
18 | 0.269 | B18
19 | 0.324 | B19
20 | 0.318 | B20
21 | 0.35 | B21
22 | 0.175 | B22
23 | 0.262 | B23
24 | 0.438 | B24
25 | 0.456 | B25
26 | 0.3 | B26
27 | 0.265 | B27
28 | 0.31 | B28
29 | 0.179 | B29
30 | 0.431 | B30
31 | 0.357 | B31
32 | 0.185 | B32
33 | 0.384 | B33
